The target of assay [1] is T1, mouse ROBO4 (pCI-mROBO4-transfected HEK293 cells) (mouse, UniProt Q8C310 28-1012).
T1 sequence: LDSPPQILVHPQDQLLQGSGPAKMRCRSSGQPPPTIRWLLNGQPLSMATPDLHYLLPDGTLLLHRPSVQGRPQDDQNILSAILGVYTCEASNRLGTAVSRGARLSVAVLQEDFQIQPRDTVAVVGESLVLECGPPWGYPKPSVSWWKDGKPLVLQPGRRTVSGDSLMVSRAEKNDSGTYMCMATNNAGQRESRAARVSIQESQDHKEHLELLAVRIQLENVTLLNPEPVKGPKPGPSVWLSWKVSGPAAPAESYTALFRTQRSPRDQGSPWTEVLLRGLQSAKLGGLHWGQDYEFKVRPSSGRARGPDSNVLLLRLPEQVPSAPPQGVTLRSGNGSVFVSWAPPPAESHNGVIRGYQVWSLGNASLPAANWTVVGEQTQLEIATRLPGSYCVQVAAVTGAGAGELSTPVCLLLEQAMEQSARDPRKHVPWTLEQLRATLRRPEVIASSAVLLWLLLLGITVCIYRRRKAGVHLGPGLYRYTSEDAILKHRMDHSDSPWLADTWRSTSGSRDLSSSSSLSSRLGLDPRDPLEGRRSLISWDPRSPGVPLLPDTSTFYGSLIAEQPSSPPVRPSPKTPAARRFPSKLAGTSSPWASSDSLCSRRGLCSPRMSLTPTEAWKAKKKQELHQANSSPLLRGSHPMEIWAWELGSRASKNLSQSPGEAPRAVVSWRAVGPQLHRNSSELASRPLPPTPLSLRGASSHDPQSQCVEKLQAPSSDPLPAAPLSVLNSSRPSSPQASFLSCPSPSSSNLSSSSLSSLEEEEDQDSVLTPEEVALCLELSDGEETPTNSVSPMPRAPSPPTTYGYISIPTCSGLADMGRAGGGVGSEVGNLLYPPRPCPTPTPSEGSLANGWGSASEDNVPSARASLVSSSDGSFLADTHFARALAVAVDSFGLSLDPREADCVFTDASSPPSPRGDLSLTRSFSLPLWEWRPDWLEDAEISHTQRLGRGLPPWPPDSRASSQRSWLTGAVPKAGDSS
The assay is described as follows: flow cytometry on transfected HEK293 cells. (In general: Flow cytometry measures light scatter and fluorescence of single cells or particles in a stream.)

In assay [2] the target is T2, human ROBO3 (pCI-hROBO3-transfected HEK293 cells) (human, UniProt Q96MS0 21-1386).
T2 sequence: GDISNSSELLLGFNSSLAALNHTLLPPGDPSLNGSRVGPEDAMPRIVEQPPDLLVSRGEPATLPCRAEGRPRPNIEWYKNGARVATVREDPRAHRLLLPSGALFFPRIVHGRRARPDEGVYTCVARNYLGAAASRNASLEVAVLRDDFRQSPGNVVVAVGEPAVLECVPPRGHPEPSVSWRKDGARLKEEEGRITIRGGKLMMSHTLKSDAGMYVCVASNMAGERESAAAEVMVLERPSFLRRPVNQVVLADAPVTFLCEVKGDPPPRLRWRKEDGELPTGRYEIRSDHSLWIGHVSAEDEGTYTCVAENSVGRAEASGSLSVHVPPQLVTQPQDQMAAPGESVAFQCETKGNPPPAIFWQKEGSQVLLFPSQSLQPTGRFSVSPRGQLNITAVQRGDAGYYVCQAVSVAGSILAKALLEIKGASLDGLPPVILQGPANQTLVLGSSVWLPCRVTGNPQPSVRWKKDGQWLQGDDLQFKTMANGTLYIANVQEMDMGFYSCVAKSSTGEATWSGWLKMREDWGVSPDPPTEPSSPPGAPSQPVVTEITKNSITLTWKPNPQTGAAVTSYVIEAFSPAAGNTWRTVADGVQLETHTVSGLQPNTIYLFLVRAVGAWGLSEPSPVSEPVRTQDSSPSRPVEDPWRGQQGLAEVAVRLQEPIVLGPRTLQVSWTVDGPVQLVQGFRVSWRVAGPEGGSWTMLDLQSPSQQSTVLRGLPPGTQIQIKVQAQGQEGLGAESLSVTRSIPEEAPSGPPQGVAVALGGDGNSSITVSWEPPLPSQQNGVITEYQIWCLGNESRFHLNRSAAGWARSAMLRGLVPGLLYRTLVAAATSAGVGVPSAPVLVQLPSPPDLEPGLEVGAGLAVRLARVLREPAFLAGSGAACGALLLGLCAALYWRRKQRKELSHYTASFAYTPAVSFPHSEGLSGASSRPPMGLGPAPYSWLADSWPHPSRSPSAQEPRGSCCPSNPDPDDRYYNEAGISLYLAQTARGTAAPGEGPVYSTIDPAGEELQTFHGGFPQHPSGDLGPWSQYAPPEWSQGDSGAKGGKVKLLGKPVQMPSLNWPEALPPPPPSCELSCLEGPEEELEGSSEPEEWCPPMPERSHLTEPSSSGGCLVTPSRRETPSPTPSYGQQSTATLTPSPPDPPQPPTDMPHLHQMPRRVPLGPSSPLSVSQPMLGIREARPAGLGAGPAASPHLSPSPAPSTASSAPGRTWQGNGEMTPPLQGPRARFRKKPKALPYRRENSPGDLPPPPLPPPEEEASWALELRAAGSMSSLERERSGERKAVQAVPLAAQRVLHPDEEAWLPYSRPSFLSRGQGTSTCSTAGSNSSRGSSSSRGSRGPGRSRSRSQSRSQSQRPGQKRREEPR
The assay is described as follows: flow cytometry on transfected HEK293 cells.

B1: humanized MAb1 antibody H-1140 (antibody, human IgG2, kappa, V domains shown)
VH: EVQLVESGGGLVQPGGSLRLSCAASGFTFSTYAMSWVRQAPGKGLEWVATISQGGTYTYYPDSVKGRFTISRDNAKNTLYLQMNSLRAEDTAVYYCARLIYYDYLDYWGQGTLVTVSS
VL: DIVMTQSPLSLPVTLGEPASISCRSSQSLENSNGNTYLNWYLQKPGQSPQLLIYRVSNRFSGVPDRFSGSGSGTDFTLKISRVEAEDVGVYYCLQVTHVPWTFGPGTKVDIKR
notes: Human IgG2 / kappa constant regions; also called hMAb1-H2-type heavy chain + hMAb1-L1-type light chain
With B1, the binding result in assay [1] was “no binding (tested: 10 µg/mL (method of 4)-3-2))”; in assay [2], “no binding (tested: 10 µg/mL (method of 4)-4-2))”.

The values above are taken from patent US20150098945A1 (Daiichi Sankyo, published 2015).
